Laboratory results published in patent publication US8455448B2, “Myostatin isoform” (Myostin Therapeutics Pty Ltd, priority 2004, dated 2013).

How the values were obtained:
Type in all cases: cell-based, murine
myogenin = assay: Myogenin protein in differentiating C2C12 myoblasts (Western blot); settings: 0, 0.1, 1, 10 μg/ml, 72 h in differentiation medium, FIG. 4
Procedure: (§1) To investigate whether roMSV65 regulates myoblast differentiation or myotube hypertrophy, C2C12 myoblast cultures were employed. Levels of well-established early and late molecular markers of myogenic differentiation like myogenin and dMHC were measured in the presence and absence of roMSV65 protein.
(§2) C2C12 myoblasts were seeded in 10 cm diameter tissue culture plates (Nunc, Roskilde, Denmark) at a cell density of 25,000 cells per cm^2 in 10 ml of Dulbecco's modified Eagle's medium (DMEM, Invitrogen, California) supplemented with foetal bovine serum (FBS, 10% v/v, Invitrogen), penicillin (1×10^5 IU/l, Sigma, St Louis, Mo., USA) and streptomycin (100 mg/I, Sigma) buffered with NaHCO3 containing phenol red (7.22 nmol/l) as a pH indicator, and incubated overnight at 37° C. with 5% CO2.
To study myoblast differentiation, the medium was replaced with the test medium: DMEM with 2% Horse Serum supplemented with 0, 0.1, 1 or 10 μg/ml roMSV65 in three replicates for each concentration (n=3). […]
(§3) Cells were removed from the plate by trypsin treatment, washed with phosphate buffered saline (PBS, Oxoid, UK) and resuspended in 200 μl of lysis buffer (10 mM Hepes pH 7.9, 1.5 mM MgCl2, 10 mM KCl, 0.5% NP40, one Complete protease inhibitor tablet [Roche Diagnostics, USA] per 50 ml buffer). […] Band intensities were measured with a GS800 densitometer (Bio-Rad, CA).

[1] = system: proliferating cell nuclear antigen (PCNA); assay: PCNA protein in proliferating C2C12 myoblasts (Western blot); settings: 0.1, 1, 10 μg/ml, 48 h, FIG. 7
Procedure: Thus, a decrease in p21 protein expression may indicate an increased cell proliferation rate. PCNA is a positive marker of cell proliferation. It is a subunit of DNA polymerase-delta during DNA replication in the cell cycle. Higher level of PCNA protein expression is associated with higher number of cells entering the DNA replication phase of the cell cycle.
C2C12 myoblasts were seeded in 10 cm diameter tissue culture plates (Nunc, Roskilde, Denmark) at a cell density of 3000 cells per cm^2 in 10 ml of Dulbecco's modified Eagle's medium (DMEM, Invitrogen, California) supplemented with foetal bovine serum (FBS, 10% v/v, Invitrogen), penicillin (1×105 IU/l, Sigma, St Louis, Mo., USA) and streptomycin (100 mg/l, Sigma) buffered with NaHCO3 containing phenol red (7.22 nmol/l) as a pH indicator, and incubated overnight at 37° C. with 5% CO2. The medium was replaced with the test medium: DMEM with 10% FBS supplemented with, 0.1, 1 or 10 μg/ml oMSV65 (n=3). The plates were then incubated at 37° C. with 5% CO2 for 48 hours. Cells were removed from the plate by trypsin treatment, washed with phosphate buffered saline (PBS, Oxoid, UK) and resuspended in 100 μl of lysis buffer (10 mM Hepes pH 7.9, 1.5 mM MgCl2, 10 mM KCl, 0.5% NP40, one Complete protease inhibitor tablet [Roche Diagnostics, USA] per 50 ml buffer). […] Band intensities were measured with a GS800 densitometer (BioRad, USA).

[2] = system: developmental myosin heavy chain (dMHC); assay: Developmental myosin heavy chain (dMHC) protein in C2C12 myotubes (Western blot); settings: FIG. 5
Procedure: as §1, §2
To study myoblast differentiation, the medium was replaced with the test medium: DMEM with 2% Horse Serum supplemented with 0, 0.1, 1 or 10 μg/ml roMSV65 in three replicates for each concentration (n=3). Plates were incubated at 37° C. with 5% CO2 for 72 hours.
as §3, with “buffer). The protein concentration was estimated using the bicinchoninic acid (BCA, Sigma, Missouri) protein assay. 20 μg of total protein was separated by SDS-PAGE (8% for MHC or 12% for myogenin) and transferred to nitrocellulose membrane by electroblotting. The blots were stained with Ponceau S stain to check equal loading.” for “buffer).”

B1: roMSV65: 65 amino acid C-terminal peptide of ovine MSV (SEQ ID NO: 49) expressed as recombinant protein in E. coli (protein)
chain: VHFYTPPYGQWIFHKERKIIFLEVYIQFCSILGEAVFKRQSKSIHFCQNFKIIACLCNTAAFRMK
modifications: Ovis aries
myogenin protein levels in C2C12 myotubes (myogenin): dose-dependently increases myogenin protein levels | PCNA protein levels in C2C12 myoblasts [1]: concentration-dependent increase in PCNA protein levels | increase in dMHC abundance compared to untreated controls ([2]; 0.1 μg/ml roMSV65, 72 h): 18 fold | increase in dMHC abundance compared to untreated controls ([2]; 1 μg/ml roMSV65, 72 h): 20 fold | increase in dMHC abundance compared to untreated controls ([2]; 10 μg/ml roMSV65, 72 h): 2 fold
